For series [1], the system named is 1E7 cells. Kind of series: NK cell cytotoxicity assay against 1E7 cells. The format is cell-based. The following applies: 1E7 target cells; NK cell to target cell ratio 5:1 or 10:1. How it is done:
Target MCF10A cells were fluorescently labeled by incubation with 1 M CellTracker Green CMFDA Dye (Invitrogen) in MCF10A growth media for 10 minutes. 3×10^4 labeled target cells were suspended with varying ratios of NK-92 effector cells in 200 μL of growth media of target cell line in absent of IL-2 and cocultured in an ultra-low attachment U-bottom 96-well plate (Corning) for 4 hours at 37° C. in 5% C02. For all StcE-treated NK cell experiment, unless otherwise indicated, NK cells were incubated with 100 nM StcE at 37° C. for 1 hour. Cells were thoroughly washed to remove StcE and coculture with target cells. After 4 hours, propidium iodide (PI; 20 μg/mL, Sigma) was added to each well for 10 minutes and washed with 0.5% BSA PBS. […] NK cell cytotoxicity was evaluated by flow cytometry as previously described^16,81. At least 1×10^4 target cells were analyzed after electronic gating on CellTracker Green. Percent cytotoxicity was calculated as 100×(experimental % dead−spontaneous % dead)/(100−spontaneous % dead), where experimental % dead was the percentage of PI positive target cells in NK cocultures and spontaneous % dead was the percentage of PI positive control target cells cultured in the absence of effector cells.

Series [2] has as its system NK-92 cells. Kind of series: Flow cytometry of mucin levels on NK-92 cells after StcE incubation. The format is cell-based. The following applies: 100 nM recombinant enzyme. The protocol:
FIG. 11. StcE mucinase effectively remove cell-surface mucin on 1E7 clone and NK cell. (A) Representative confocal images of Muc1-GFP expressing 1E7 cells with and without treatment with 100 nM StcE, StcE ΔX409, or StcE-EE Zip; Alexa Fluor 647 conjugated to GFP nanobody is used to probe cell-surface Muc1-GFP constructs. (Scale bar, 10 μm). (B) Quantification of mean fluorescence intensity of Muc1-GFP and cell-surface Muc1-GFP probed with GFP nanobody in 1E7 cells treated with the indicated concentration of StcE mucinase; results are shown for induction of Muc1-GFP at 100 ng/ml and 1000 ng/ml doxycycline. (C) Cytotoxicity of NK-92 cells against 1E7 cells treated with control buffer, 100 nM StcE mucinase, or 5,000 U/mL PNGase F for 1 hour; Muc1-GFP induction is at the indicated doxycycline concentration (1,100, and 1,000 ng/ml); NK cell to target cell ratio is 5:1. (D) Flow cytometry analysis of mucin levels on NK-92 cells following incubation with control buffer or 100 nM recombinant StcE or StcE ΔX409; StcE surface level after incubation probed with anti His-tag antibody and cell-surface mucin level probed with catalytically dead StcE E447D conjugated to Cy5. Statistical significance is given by ns—not significant, *P≤0.05, **P≤0.01, ***P≤0.001, ****P≤0.0001. Results are a representative dataset from 3 independent replicates. […]
For orientation: In flow cytometry, cells or beads pass a laser one at a time.

B1: StcE-ΔX409: StcE with a deleted C-terminal X409 lectin domain; NK cells treated with it: StcE-ΔX409 NK (protein)
chain: ADNNSAIYFNTSQPINDLQGSLAAEVKFAQSQILPAHPKEGDSQPHLTSLRKSLLLVRPVKADDKTPVQVEARDDNNKILGTLTLYPPSSLPDTIYHLDGVPEGGIDFTPHNGTKKIINTVAEVNKLSDASGSSIHSHLTNNALVEIHTANGRWVRDIYLPQGPDLEGKMVRFVSSAGYSSTVFYGDRKVTLSVGNTLLFKYVNGQWFRSGELENNRITYAQHIWSAELPAHWIVPGLNLVIKQGNLSGRLNDIKIGAPGELLLHTIDIGMLTTPRDRFDFAKDKEAHREYFQTIPVSRMIVNNYAPLHLKEVMLPTGELLTDMDPGNGGWHSGTMRQRIGKELVSHGIDNANYGLNSTAGLGENSHPYVVAQLAAHNSRGNYANGIQVHGGSGGGGIVTLDSTLGNEFSHEVGHNYGLGHYVDGFKGSVHRSAENNNSTWGWDGDKKRFIPNFYPSQTNEKSCLNNQCQEPFDGHKFGFDAMAGGSPFSAANRFTMYTPNSSAIIQRFFENKAVFDSRSSTGFSKWNADTQEMEPYEHTIDRAEQITASVNELSESKMAELMAEYAVVKVHMWNGNWTRNIYIPTASADNRGSILTINHEAGYNSYLFINGDEKVVSQGYKKSFVSDGQFWKERDVVDTREARKPEQFGVPVTTLVGYYDPEGTLSSYIYPAMYGAYGFTYSDDSQNLSDNDCQLQVDTKEGQLRFRLANHRANNTVMNKFHINVPTESQPTQATLVCNNKILDTKSLTPAPEGLTYTVN
With B1, the “cytotoxicity of enzyme-equipped or enzyme-treated NK cells compared to unmodified NK-92 cells” value in series [1] was “not significantly enhanced”. The “trimming of mucin-domain containing proteins on NK-92 cells” value in series [2] is on record as “trimmed similarly”.

Source of the values: patent publication US20250152627A1, “COMPOSITIONS AND METHODS FOR ENHANCING IMMUNE CELL FUNCTION USING MODIFIED CELLS WITH GLYCOCALYX EDITING ENZYMES” (Cornell University, priority 2021, published 2025).
